B3: Fc-G236A-MST-HN (other, human, UniProt P01857-1 104-330, looked up)
chain: DKTHTCPPCPAPELLAGPSVFLFPPKPKDTLYITREPEVTCVVVDVSHEDPEVKFNWYVDGVEVHNAKTKPREEQYNSTYRVVSVLTVLHQDWLNGKEYKCKVSNKALPAPIEKTISKAKGQPREPQVYTLPPSRDELTKNQVSLTCLVKGFYPSDIAVEWESNGQPENNYKTTPPVLDSDGSFFLYSKLTVDKSRWQQGNVFSCSVMHEALKFHYTQKSLSLSPGK
notes: domain: Fc fragment; EU numbering
B4: human FcγRIIIb-NA2 (receptor, UniProt O75015 17-200, looked up)
chain: GMRTEDLPKAVVFLEPQWYSVLEKDSVTLKCQGAYSPEDNSTQWFHNESLISSQASSYFIDAATVNDSGEYRCQTNLSTLSDPVQLEVHIGWLLLQAPRWVFKEEDPIHLRCHSWKNTALHKVTYLQNGKDRKYFHHNSDFHIPKATLKDSGSYFCRGLVGSKNVSSETVNITITQGLAVSTIS
modifications: C-terminal biotin
notes: In-house, C-terminally biotinylated; captured on a streptavidin sensor; also called hFcγRIIIb-NA2
B6: human FcγRIIIb-NA1 (receptor, UniProt O75015 17-200, looked up)
chain: GMRTEDLPKAVVFLEPQWYRVLEKDSVTLKCQGAYSPEDNSTQWFHNENLISSQASSYFIDAATVDDSGEYRCQTNLSTLSDPVQLEVHVGWLLLQAPRWVFKEEDPIHLRCHSWKNTALHKVTYLQNGKDRKYFHHNSDFHIPKATLKDSGSYFCRGLVGSKNVSSETVNITITQGLAVSTIS
modifications: C-terminal biotin
notes: In-house, C-terminally biotinylated; captured on a streptavidin sensor; also called hFcγRIIIb-NA1
B7: human FcγRIIa-131R (receptor, UniProt P12318 34-218, looked up)
chain: QAAAPPKAVLKLEPPWINVLQEDSVTLTCQGARSPESDSIQWFHNGNLIPTHTQPSYRFKANNNDSGEYTCQTGQTSLSDPVHLTVLSEWLVLQTPHLEFQEGETIMLRCHSWKDKPLVKVTFFQNGKSQKFSRLDPTFSIPQANHSHSGDYHCTGNIGYTLFSSKPVTITVQVPSMGSSSPMGI
modifications: C-terminal biotin
notes: Bought, C-terminally biotinylated; captured on a streptavidin sensor
B8: Fc-MST-HN (other, human, UniProt P01857-1 104-330, looked up)
chain: DKTHTCPPCPAPELLGGPSVFLFPPKPKDTLYITREPEVTCVVVDVSHEDPEVKFNWYVDGVEVHNAKTKPREEQYNSTYRVVSVLTVLHQDWLNGKEYKCKVSNKALPAPIEKTISKAKGQPREPQVYTLPPSRDELTKNQVSLTCLVKGFYPSDIAVEWESNGQPENNYKTTPPVLDSDGSFFLYSKLTVDKSRWQQGNVFSCSVMHEALKFHYTQKSLSLSPGK
notes: domain: Fc fragment; MST-HN = M252Y S254T T256E H433K N434F (EU numbering); also called IgG1-Fc MST-HN
B9: human FcγRIIa-131H (receptor, UniProt P12318 34-218, looked up)
chain: QAAAPPKAVLKLEPPWINVLQEDSVTLTCQGARSPESDSIQWFHNGNLIPTHTQPSYRFKANNNDSGEYTCQTGQTSLSDPVHLTVLSEWLVLQTPHLEFQEGETIMLRCHSWKDKPLVKVTFFQNGKSQKFSHLDPTFSIPQANHSHSGDYHCTGNIGYTLFSSKPVTITVQVPSMGSSSPMGI
modifications: C-terminal biotin
notes: as for B7

What was measured:
[1] = biological target: T1, soluble human FcRn (human, UniProt P55899 24-297; P61769 21-119); assay: SPR (IBIS MX96), Fc fragment immobilised, soluble FcRn titrated, pH 6.0, equilibrium 1:1 fit
T1 construct: Made in HEK293F cells from two vectors; also called sFcRn; not shown: C-terminal BirA deca-His-tag
Protocol: (§1) Regeneration of the sensor surface between the cycles was performed by injection of 10 mM Gly-HCl pH 2.4. Affinity calculations were carried out by performing an equilibrium analysis interpolating to an Rmax of 200 to 600, depending on the assay, and fitting a 1:1 Langmuir binding model, assuming equilibrium to be reached after 360s of IgG-Fc containing analyte injections. Analysis and calculations were performed using Scrubber Software Version 2 (BioLogic Software), Excel (Microsoft) and Graphpad Prism (Prism).
(§2) Sensorgrams of a representative of three independent affinity measurements were used to determine the binding of the human IgG1-Fc variants to human FcγRs and human FcRn at pH 7.4 and pH 6.0. […] KD values were derived by performing an equilibrium analysis and fitting a 1:1 Langmuir binding model. […] No binding was marked as non-determinable (n.d.). Data are presented in Tables S1-S4 as mean±standard deviation.

[2] = biological target: T1, soluble human FcRn; assay: SPR (IBIS MX96), Fc fragment immobilised, soluble FcRn titrated, pH 7.4, equilibrium 1:1 fit
Protocol: as §1, §2

[3] = biological target: B9; assay: SPR, Fc fragments on captured FcγRs, pH 7.4
Protocol: as §1, with “The sensor surface was regenerated between the cycles by subsequent injections of 20 mM Tris-HCl, 150 mM NaCl pH 8.8 and 20 mM H₃PO₄ pH 2.4. […] Regeneration” for “Regeneration”

[4] = biological target: B7; assay: SPR, Fc fragments on captured FcγRs, pH 7.4
Protocol: as §1, with “The sensor surface was regenerated between the cycles by subsequent injections of 20 mM Tris-HCl, 150 mM NaCl pH 8.8 and 20 mM H₃PO₄ pH 2.4. […] Regeneration” for “Regeneration”

[5] = biological target: T2, human FcγRIa (human, UniProt P12314 16-288); assay: SPR (IBIS MX96), FcγR captured on sensor, Fc fragment titrated, pH 7.4, equilibrium 1:1 fit
T2 construct: Bought, C-terminally His-tagged; captured on the sensor by biotinylated anti-His mIgG1; also called hFcγRIa; not shown: C-terminal His tag
Protocol: as §1, with “The sensor surface was regenerated between the cycles by subsequent injections of 20 mM Tris-HCl, 150 mM NaCl pH 8.8 and 20 mM H₃PO₄ pH 2.4. […] Regeneration” for “Regeneration”

[6] = biological target: T3, human FcγRIIa on THP-1 cells (human, UniProt P12318 34-317); assay: cell-based or functional assay
T3 sequence (looked up): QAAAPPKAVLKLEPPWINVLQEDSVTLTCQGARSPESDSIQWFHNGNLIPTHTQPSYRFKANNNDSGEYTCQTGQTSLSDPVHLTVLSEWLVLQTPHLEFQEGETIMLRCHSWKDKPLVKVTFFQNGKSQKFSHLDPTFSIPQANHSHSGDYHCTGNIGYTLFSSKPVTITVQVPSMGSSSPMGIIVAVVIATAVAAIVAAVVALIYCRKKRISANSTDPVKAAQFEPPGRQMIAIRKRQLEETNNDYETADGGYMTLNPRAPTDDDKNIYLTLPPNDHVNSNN

[7] = biological target: human FcRn, endogenous, in THP-1 cells and blood monocytes (human, UniProt P55899 24-365; P61769 21-119); assay: cell-based or functional assay
[8] = biological target: T4, Fc-IHH (human, UniProt P01857-1 104-330 = IgG part, I253A; H310A; H435A); assay: SPR (IBIS MX96), FcγR captured on sensor, Fc fragment titrated, pH 7.4, equilibrium 1:1 fit
T4 construct: domain: Fc fragment; IHH = I253A H310A H435A (EU numbering); also called IgG1-Fc-IHH
Protocol: as §1, with “The sensor surface was regenerated between the cycles by subsequent injections of 20 mM Tris-HCl, 150 mM NaCl pH 8.8 and 20 mM H₃PO₄ pH 2.4. […] Regeneration” for “Regeneration”

[9] = biological target: T5, Fc-WT (human, UniProt P01857-1 104-330 = IgG part, limits assumed); assay: as above
T5 construct: domain: Fc fragment; Fc-only fragment made by Evitria; also called IgG1-Fc wild-type; human IgG1-Fc fragment WT
Protocol: as §1, with “The sensor surface was regenerated between the cycles by subsequent injections of 20 mM Tris-HCl, 150 mM NaCl pH 8.8 and 20 mM H₃PO₄ pH 2.4. […] Regeneration” for “Regeneration”

[10] = biological target: B3; assay: as above
Protocol: as §1, with “The sensor surface was regenerated between the cycles by subsequent injections of 20 mM Tris-HCl, 150 mM NaCl pH 8.8 and 20 mM H₃PO₄ pH 2.4. […] Regeneration” for “Regeneration”

[11] = biological target: T6, Fc-G236A (human, UniProt P01857-1 104-330 = IgG part, G236A); assay: as above
T6 construct: domain: Fc fragment; Positions in EU numbering; also called IgG1-Fc G236A
Protocol: as §1, with “The sensor surface was regenerated between the cycles by subsequent injections of 20 mM Tris-HCl, 150 mM NaCl pH 8.8 and 20 mM H₃PO₄ pH 2.4. […] Regeneration” for “Regeneration”

[12] = biological target: B8; assay: as above
Protocol: as §1, with “The sensor surface was regenerated between the cycles by subsequent injections of 20 mM Tris-HCl, 150 mM NaCl pH 8.8 and 20 mM H₃PO₄ pH 2.4. […] Regeneration” for “Regeneration”

[13] = biological target: T7, human FcγRIIIa-158V (human, UniProt P08637 17-208, C-terminal biotin); assay: SPR, Fc fragments on captured FcγRs, pH 7.4
T7 construct: Bought, C-terminally biotinylated; captured on a streptavidin sensor; also called hFcγRIIIa-158V
Protocol: as §1, with “The sensor surface was regenerated between the cycles by subsequent injections of 20 mM Tris-HCl, 150 mM NaCl pH 8.8 and 20 mM H₃PO₄ pH 2.4. […] Regeneration” for “Regeneration”

[14] = biological target: B6; assay: SPR, Fc fragments on captured FcγRs, pH 7.4
Protocol: as §1, with “The sensor surface was regenerated between the cycles by subsequent injections of 20 mM Tris-HCl, 150 mM NaCl pH 8.8 and 20 mM H₃PO₄ pH 2.4. […] Regeneration” for “Regeneration”

[15] = biological target: T8, human FcγRIIIa-158F (human, UniProt P08637 17-208, C-terminal biotin); assay: SPR, Fc fragments on captured FcγRs, pH 7.4
T8 construct: Bought, C-terminally biotinylated; captured on a streptavidin sensor; also called hFcγRIIIa-158F
Protocol: as §1, with “The sensor surface was regenerated between the cycles by subsequent injections of 20 mM Tris-HCl, 150 mM NaCl pH 8.8 and 20 mM H₃PO₄ pH 2.4. […] Regeneration” for “Regeneration”

[16] = biological target: B4; assay: SPR, Fc fragments on captured FcγRs, pH 7.4
Protocol: as §1, with “The sensor surface was regenerated between the cycles by subsequent injections of 20 mM Tris-HCl, 150 mM NaCl pH 8.8 and 20 mM H₃PO₄ pH 2.4. […] Regeneration” for “Regeneration”

T1 sequence (P55899 24-297, chain 1 of 2): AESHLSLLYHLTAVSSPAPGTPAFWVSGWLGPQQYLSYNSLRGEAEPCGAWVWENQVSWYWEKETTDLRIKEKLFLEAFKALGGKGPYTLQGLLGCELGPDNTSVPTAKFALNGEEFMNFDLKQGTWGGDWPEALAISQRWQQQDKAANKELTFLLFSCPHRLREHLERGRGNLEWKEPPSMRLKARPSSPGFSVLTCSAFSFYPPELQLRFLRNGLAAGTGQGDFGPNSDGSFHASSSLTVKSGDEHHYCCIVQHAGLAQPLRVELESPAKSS
T1 sequence (P61769 21-119, chain 2 of 2): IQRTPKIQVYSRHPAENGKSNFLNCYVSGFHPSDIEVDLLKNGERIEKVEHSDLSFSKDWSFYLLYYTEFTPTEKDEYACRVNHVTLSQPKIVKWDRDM
T2 sequence (P12314 16-288 limits assumed): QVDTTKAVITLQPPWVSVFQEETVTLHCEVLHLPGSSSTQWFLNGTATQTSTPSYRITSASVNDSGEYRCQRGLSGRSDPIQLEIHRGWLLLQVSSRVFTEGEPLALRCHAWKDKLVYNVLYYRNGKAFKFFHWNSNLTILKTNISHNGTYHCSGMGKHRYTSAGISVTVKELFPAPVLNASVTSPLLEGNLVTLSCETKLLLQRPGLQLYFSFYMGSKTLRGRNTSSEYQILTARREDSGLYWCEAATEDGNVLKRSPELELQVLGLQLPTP
human FcRn, endogenous, in THP-1 cells and blood monocytes, sequence (P55899 24-365 limits assumed, chain 1 of 2): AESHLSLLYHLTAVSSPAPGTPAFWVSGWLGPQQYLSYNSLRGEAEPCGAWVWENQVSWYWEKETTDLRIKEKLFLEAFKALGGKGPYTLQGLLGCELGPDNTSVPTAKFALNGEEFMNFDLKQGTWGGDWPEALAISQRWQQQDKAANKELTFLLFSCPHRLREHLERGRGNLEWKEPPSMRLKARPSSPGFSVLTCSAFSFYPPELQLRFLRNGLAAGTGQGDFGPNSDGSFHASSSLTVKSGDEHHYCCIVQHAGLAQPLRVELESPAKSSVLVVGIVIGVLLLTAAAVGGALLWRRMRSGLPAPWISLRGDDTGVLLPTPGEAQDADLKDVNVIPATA
human FcRn, endogenous, in THP-1 cells and blood monocytes, sequence (P61769 21-119 limits assumed, chain 2 of 2): as the sequence (P61769 21-119, chain 2 of 2) above

B1: Fc-ΔG236 (other)
chain: DKTHTCPPCPAPELLGPSVFLFPPKPKDTLMISRTPEVTCVVVDVSHEDPEVKFNWYVDGVEVHNAKTKPREEQYNSTYRVVSVLTVLHQDWLNGKEYKCKVSNKALPAPIEKTISKAKGQPREPQVYTLPPSRDELTKNQVSLTCLVKGFYPSDIAVEWESNGQPENNYKTTPPVLDSDGSFFLYSKLTVDKSRWQQGNVFSCSVMHEALHNHYTQKSLSLSPGK
[1]
  Kd: 0.13 µM

B2: Fc-ΔG236-MST-HN (other)
chain: DKTHTCPPCPAPELLGPSVFLFPPKPKDTLYITREPEVTCVVVDVSHEDPEVKFNWYVDGVEVHNAKTKPREEQYNSTYRVVSVLTVLHQDWLNGKEYKCKVSNKALPAPIEKTISKAKGQPREPQVYTLPPSRDELTKNQVSLTCLVKGFYPSDIAVEWESNGQPENNYKTTPPVLDSDGSFFLYSKLTVDKSRWQQGNVFSCSVMHEALKFHYTQKSLSLSPGK
[2]
  Kd: 1.42 µM
[1]
  Kd: 0.0154 µM

## B3
[3]
  fold increase in affinity compared to Fc-MST-HN: ~9 fold
  fold increase in binding compared to Fc-WT: 2 fold
[4]
  fold increase in affinity compared to Fc-MST-HN: ~6 fold
  fold increase in binding compared to Fc-WT: 2 fold
[5]
  Kd: 0.0108 µM
[2]
  Kd: 1.33 µM
[6]
  Fold-intensity of intracellular accumulation compared to Fc-WT (Image Stream, THP-1 cells): 1.87 fold of Fc-WT
[7]
  Fold-intensity of intracellular accumulation compared to Fc-WT (Image Stream, THP-1 cells): 1.87 fold of Fc-WT
[1]
  Kd: 0.0234 µM

## B4
[8]
  Kd: > 2 µM
[9]
  Kd: > 2 µM
[10]
  Kd: > 2 µM
[11]
  Kd: > 2 µM
[12]
  Kd: > 2 µM

B5: human FcγRIIb (receptor, UniProt P31994 43-217, looked up)
chain: TPAAPPKAVLKLEPQWINVLQEDSVTLTCRGTHSPESDSIQWFHNGNLIPTHTQPSYRFKANNNDSGEYTCQTGQTSLSDPVHLTVLSEWLVLQTPHLEFQEGETIVLRCHSWKDKPLVKVTFFQNGKSKKFSRSDPNFSIPQANHSHSGDYHCTGNIGYTLYSSKPVTITVQAP
modifications: C-terminal biotin
notes: Bought, C-terminally biotinylated; captured on a streptavidin sensor; also called hFcγRIIb
[8]
  Kd: > 2 µM
[10]
  Kd: > 2 µM
[11]
  Kd: > 2 µM
[12]
  Kd: > 2 µM

## B6
[8]
  Kd: > 2 µM
[9]
  Kd: > 2 µM
[10]
  Kd: > 2 µM
[11]
  Kd: > 2 µM
[12]
  Kd: > 2 µM

## B7
[8]
  Kd: > 2 µM
[10]
  Kd: 0.269 µM
[11]
  Kd: 0.166 µM
[12]
  Kd: 1.64 µM

## B8
[13]
  fold reduction in binding compared to Fc-WT: ≥ 3 fold
[3]
  fold reduction in binding compared to Fc-WT: ≥ 3 fold
[14]
  fold reduction in binding compared to Fc-WT: ≥ 3 fold
[15]
  fold reduction in binding compared to Fc-WT: ≥ 3 fold
[4]
  fold reduction in binding compared to Fc-WT: ≥ 3 fold
[16]
  fold reduction in binding compared to Fc-WT: ≥ 3 fold
[5]
  Kd: 0.0059 µM
[2]
  Kd: 1.41 µM
[1]
  Kd: 0.0189 µM

## B9
[8]
  Kd: > 2 µM
[10]
  Kd: 0.189 µM
[11]
  Kd: 0.0911 µM
[12]
  Kd: 1.65 µM

Reference: patent US20250101111A1 (ARGENX, published 2025)
